{
  "source": "paper doi:10.1101/2020.10.21.348805",
  "about": "(bioRxiv, 2020)",
  "binders": {"B1": {"name": "His-OsMKK6 (enzyme, rice (Oryza sativa), UniProt Q5QN75 1-355, looked up)", "chain": "MRGKKPHKELKLSVPAQETPVDKFLTASGTFKDGELRLNQRGLQLISEETADEPQSTNLKVEDVQLSMDDLEMIQVIGKGSGGIVQLVRHKWVGTLYALKGIQMNIQEAVRKQIVQELKINQATQNAHIVLCHQSFYHNGVIYLVLEYMDRGSLADIIKQVKTILEPYLAVLCKQVLEGLLYLHHERHVIHRDIKPSNLLVNRKGEVKITDFGVSAVLASSMGQRDTFVGTYNYMAPERISGSSYDYKSDIWSLGLVILECAIGRFPYIPSEGEGWLSFYELLEAIVDQPPPSAPADQFSPEFCAFISSCIQKDPAERMSASELLNHPFIKKFEDKDLDLRILVESLEPPMNISE"}},
  "biological_target": "T1, GST-OsDMI3 (rice (Oryza sativa), UniProt Q6AVM3 1-516)",
  "T1 sequence (looked up)": "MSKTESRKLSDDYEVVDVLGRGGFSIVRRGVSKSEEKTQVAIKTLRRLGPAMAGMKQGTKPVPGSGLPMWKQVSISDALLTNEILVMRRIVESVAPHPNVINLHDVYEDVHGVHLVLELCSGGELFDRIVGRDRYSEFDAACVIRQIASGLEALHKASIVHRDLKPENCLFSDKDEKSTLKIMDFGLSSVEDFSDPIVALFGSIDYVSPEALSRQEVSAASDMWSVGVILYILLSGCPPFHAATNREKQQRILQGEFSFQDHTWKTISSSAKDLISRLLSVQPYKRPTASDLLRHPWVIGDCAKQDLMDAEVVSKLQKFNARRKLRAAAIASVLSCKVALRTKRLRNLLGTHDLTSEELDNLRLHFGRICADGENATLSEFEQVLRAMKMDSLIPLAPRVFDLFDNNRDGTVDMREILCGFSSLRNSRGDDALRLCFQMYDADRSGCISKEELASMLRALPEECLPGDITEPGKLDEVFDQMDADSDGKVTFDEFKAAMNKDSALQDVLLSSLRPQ",
  "experiment": "pull-down",
  "data": [
    {"binder": "B1", "values": [
      {"measurement": "binding result", "value": "binds"}
    ]}
  ]
}
